Consider three molecules from paper PMC6914384 (Nature, 2018).

No end group written: not given here.

The target in assay [1] is T1, p300 BPΔR module (BRP 1048-1282 with the RING domain 1169-1241 replaced by a single glycine) (UniProt Q09472).
T1 chain: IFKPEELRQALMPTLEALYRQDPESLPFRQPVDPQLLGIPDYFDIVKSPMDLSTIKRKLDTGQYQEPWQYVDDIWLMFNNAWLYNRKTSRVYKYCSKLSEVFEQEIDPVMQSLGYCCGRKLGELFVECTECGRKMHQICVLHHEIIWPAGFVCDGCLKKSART
Briefly: crystal structure.

Assay [2] has as its target T2, p300 BRP module (bromodomain-RING-PHD), residues 1048-1282 (UniProt Q09472 1048-1282).
T2 sequence: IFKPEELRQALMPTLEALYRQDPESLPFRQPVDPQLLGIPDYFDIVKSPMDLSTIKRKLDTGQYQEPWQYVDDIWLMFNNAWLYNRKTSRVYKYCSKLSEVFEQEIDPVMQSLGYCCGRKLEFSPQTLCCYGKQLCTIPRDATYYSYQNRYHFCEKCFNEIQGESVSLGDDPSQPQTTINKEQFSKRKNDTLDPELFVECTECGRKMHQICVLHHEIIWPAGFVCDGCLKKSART
As to the kind of experiment: ITC.

B1: 11-mer histone peptide H4 (10-20) with acetylated K12 and K16 (peptide)
peptide: GLGK(Ac)GGAK(Ac)RHR
Regarding B1, the binding result in assay [1] is “binds”.

B2: H3 K14ac (1-20) peptide (peptide)
chain: ARTKQTQRKSTGGK(Ac)APRKQL
In the case of B2, in assay [2], the dissociation constant Kd stood at 1.76 mM and the “stoichiometry N” value was determined as 1.13.

B3: H3 K9acK14ac (1-20) peptide (peptide)
chain: ARTKQTQRK(Ac)STGGK(Ac)APRKQL
For B3, in assay [2], the equilibrium dissociation constant (Kd) turned out to be 0.578 mM and the “stoichiometry N” value was determined as 1.06.
